Columns and labels:
[1] = molecular target: T1, PD-1 (UniProt Q15116 25-167, biotinylated in the MACS experiments); assay: surface plasmon resonance (SPR)
T1 construct: The catalogue number points to a human PD-1 reagent; also called biotinylated PD1 (PD1-H82E4, AcroBiosystems); PD-1-biotin

[2] = molecular target: T2, unconjugated streptavidin-PE (UniProt P22629 37-163, limits assumed, phycoerythrin conjugate); assay: flow cytometry of HEK293 cells 24 hours after transfection, stained with streptavidin-PE alone [panel Streptavidin PE]
T2 construct: Control staining reagent; also called streptavidin-PE alone
T2 sequence (P22629 37-163 limits assumed): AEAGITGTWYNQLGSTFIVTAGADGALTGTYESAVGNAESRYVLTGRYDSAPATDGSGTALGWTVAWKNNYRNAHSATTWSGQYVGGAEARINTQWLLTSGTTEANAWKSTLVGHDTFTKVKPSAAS

[3] = molecular target: T2, unconjugated streptavidin-PE; assay: flow cytometry of HEK293 cells displaying the IgG, stained with streptavidin PE alone

T1 sequence (Q15116 25-167 limits assumed): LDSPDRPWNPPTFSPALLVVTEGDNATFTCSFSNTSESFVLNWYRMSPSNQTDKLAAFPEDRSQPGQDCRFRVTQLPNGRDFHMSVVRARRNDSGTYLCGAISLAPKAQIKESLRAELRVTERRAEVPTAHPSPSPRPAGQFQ

B1: 337_1_C08 (antibody, V domains shown)
VH: EVQLVQSGAEVKRPGASVTVSCKASGYTFTNHGISWVRQAPGQGLEWMGWNSPYNGNTNYAQRFQGRVTMTTDTSTNTAYMELRTLTSDDTAMYYCARDRDYYDAGSYWGQGTLVTVSS
VL: SYELTQPPSVSVSPGQTARITCSGDSLPKQYAYWYQQKPGQAPVLVIYKDSERPSGIPERFSGSGSGTTVTLTISGVQAEDEADYYCQSADSDNAFVFGRGTKLTVL
notes: Anti-PD1 antibody identified by phage display; also called anti-PD1 antibody 337_1_C08; 337_C08
In the case of B1, the Kd [1] is reported as 74 nM.

B2: mono-specific anti-FIXa IgG (Emicizumab anti-FIXa VH with Emicizumab VL, pINT17-BSD-anti-FIXa) (antibody, V domains shown)
VH: QVQLVESGGGLVQPGGSLRLSCAASGFTFSYYDIQWVRQAPGKGLEWVSSISPSGQSTYYRREVKGRFTISRDNSKNTLYLQMNSLRAEDTAVYYCARRTGREYGGGWYFDYWGQGTLVTVSS
VL: DIQMTQSPSSLSASVGDRVTITCKASRNIERQLAWYQQKPGQAPELLIYQASRKESGVPDRFSGSRYGTDFTLTISSLQPEDIATYYCQQYSDPPLTFGGGTKVEIK
notes: also called mono-specific anti-FIXa arm in IgG format
B2: no binding [2].

B3: Ustekinumab (antibody, V domains shown)
VH: EVQLVQSGAEVKKPGESLKISCKGSGYSFTTYWLGWVRQMPGKGLDWIGIMSPVDSDIRYSPSFQGQVTMSVDKSITTAYLQWNSLKASDTAMYYCARRRPGQGYFDFWGQGTLVTVS
VL: DIQMTQSPSSLSASVGDRVTITCRASQGISSWLAWYQQKPEKAPKSLIYAASSLQSGVPSRFSGSGSGTDFTLTISSLQPEDFATYYCQQYNIYPYTFGQGTKLEIKR
notes: Anti-IL12 antibody; also called Ustenkinumab; Ustenikumab
B3: no binding [3].

B4: Emicizumab (bi-specific, displayed from pINT17-Bi-CMV-Emicizumab) (bispecific antibody, human IgG4 S228P)
light: DIQMTQSPSSLSASVGDRVTITCKASRNIERQLAWYQQKPGQAPELLIYQASRKESGVPDRFSGSRYGTDFTLTISSLQPEDIATYYCQQYSDPPLTFGGGTKVEIKRTAAAPSVFIFPPSDEQLKSGTASVVCLLNNFYPREAKVQWKVDNALQSGNSQESVTEQDSKDSTYSLSSTLTLSKADYEKHKVYACEVTHQGLSSPVTKSFNRGEC
heavy 1: QVQLVESGGGLVQPGGSLRLSCAASGFTFSYYDIQWVRQAPGKGLEWVSSISPSGQSTYYRREVKGRFTISRDNSKNTLYLQMNSLRAEDTAVYYCARRTGREYGGGWYFDYWGQGTLVTVSSASTKGPSVFPLAPCSRSTSESTAALGCLVKDYFPEPVTVSWNSGALTSGVHTFPAVLQSSGLYSLSSVVTVPSSSLGTQTYTCNVDHKPSNTKVDKRVESKYGPPCPPCPAPEFLGGPSVFLFPPKPKDTLMISRTPEVTCVVVDVSQEDPEVQFNWYVDGVEVHNAKTKPREEQYNSTYRVVSVLTVLHQDWLNGKEYKCKVSNKGLPSSIEKTISKAKGQPREPQVYTLPPSQKEMTKNQVSLTCLVKGFYPSDIAVEWESNGQPENNYKTTPPVLDSDGSFFLYSKLTVDKSRWQEGNVFSCSVMHEALHNRYTQKSLSLSPEQKLISEEDLNAVGQDTQEVIVVPHSLPFKVVVISAILALVVLTIISLIILIMLWQKKPR
heavy 2: QVQLVQSGSELKKPGASVKVSCKASGYTFTDNNMDWVRQAPGQGLEWMGDINTRSGGSIYNEEFQDRVIMTVDKSTDTAYMELSSLRSEDTATYHCARRKSYGYYLDEWGEGTLVTVSSASTKGPSVFPLAPCSRSTSESTAALGCLVKDYFPEPVTVSWNSGALTSGVHTFPAVLQSSGLYSLSSVVTVPSSSLGTQTYTCNVDHKPSNTKVDKRVESKYGPPCPPCPAPEFLGGPSVFLFPPKPKDTLMISRTPEVTCVVVDVSQEDPEVQFNWYVDGVEVHNAKTKPREEQYNSTYRVVSVLTVLHQDWLNGKEYKCKVSNKGLPSSIEKTISKAKGQPREPQVYTLPPSQEEMTKNQVSLTCLVKGFYPSDIAVEWESNGQPENNYKTTPPVLDSDGSFFLYSKLTVDKSRWQEGNVFSCSVMHEALHNHYTQESLSLSPEQKLISEEDLNAVGQDTQEVIVVPHSLPFKVVVISAILALVVLTIISLIILIMLWQKKPR
notes: also called bi-specific Emicizumab; knobs-into-holes common light chain IgG
B4: no binding [2].
